Here are results for nine molecules from US20100255485A1, “BIOMARKERS FOR THE ONSET OF NEURODEGENERATIVE DISEASES” (priority 2007, published 2010).

Series [1] deals with SOD1(G93A) mice. Put plainly: Intramuscular Salubrinal into one hindlimb of SOD1(G93A) mice: ER stress, UPR, microglia activation, neuromuscular junctions. The format is in vivo.
For the next series, the system named is embryonic motor neuron. The conditions noted are these: cited from earlier work.
In a further series the test system is motoneurons. The conditions noted are these: in vivo; cited from earlier work.
In series [2] the test system is murine models of inherited progressive motor degeneration. The settings on record: CNTF and/or BDNF; cited from earlier work.
Series [3] deals with SOD1(G93A) mice. Put plainly: Intramuscular CNTF in SOD1(G93A) mice: stress responses in VUL MNs and microglia activation. It is filed as in vivo.
Series [4] deals with SOD1(G93A) mice. The settings on record: intramuscular applications of CNTF; stated as known effect; cited from earlier work.
Where [5] appears, read: early treatment P14 until P32, analyzed at P39.
The mark [6] stands for this setting: early treatment P14 until P32, analyzed at P53.
Setting [7] is: late treatment P39 until P50, analyzed at P53.
Where [8] appears, read: CNTF intramuscular from P28 to P40.

Take `O=C(/C=C/c1ccccc1)NC(NC(=S)Nc1cccc2cccnc12)C(Cl)(Cl)Cl` (centres unmarked) [Salubrinal]: in the series with SOD1(G93A) mice [1] (early and late treatments taken together), the “disease process during the Salubrinal treatments” value is listed as “partially reversed”. In addition, in the series on SOD1(G93A) mice [1] (early treatment P14 until P32), the “disease process during administration” value was “effectively arrested”. Also, the UPR entry in the series with SOD1(G93A) mice [1] (setting [5]) is given as “no evidence of a UPR”; in the series on SOD1(G93A) mice [1] (early treatment P14 until P32, analyzed at P53 (21 days after discontinuation)) it was “early signs of a UPR”; in the series on SOD1(G93A) mice [1] (setting [7]) it was “mild UPR”. In addition, the results for the microglia activation entry in the series with SOD1(G93A) mice [1] (setting [5]), in the series on SOD1(G93A) mice [1] (setting [6]) and in the series with SOD1(G93A) mice [1] (setting [7]) were “no microglia activation”, “mild microglia activation” and “mild microglia activation”, respectively. In addition, the “levels of BiP” value with SOD1(G93A) mice [1] (early treatment P14 until P32, analyzed at P39 (7 days after discontinuation)) is “low levels”. Besides, the “loss of synaptic vesicles at neuromuscular junctions” value in the series on SOD1(G93A) mice [1] (setting [6]) was “no loss”. Besides, the “loss of neuromuscular junction synaptic vesicles” value in the series on SOD1(G93A) mice [1] (setting [7]) was “no loss”.

Consider IGF-1: neurotrophic factor, for which the “embryonic motor neuron survival in culture” value with embryonic motor neuron was “enhanced”.

For the molecule LIF: cytokine, the “embryonic motor neuron survival in culture” value in the series on embryonic motor neuron is “enhanced”.

B1: GDNF: neurotrophic factor (protein, UniProt P39905 78-211, looked up)
Glial cell line-derived …: SPDKQMAVLPRRERNRQAAAANPENSRGKGRRGQRGKNRGCVLTAIHLNVTDLGLGYETKEELIFRYCSGSCDAAETTYDKILKNLSRNRRLVSDKVGQACCRPIAFDDDLSFLDDNLVYHILRKHSAKRCGCI
As for B1, the “motoneuronal death occurring naturally during embryonic development” value with motoneurons is reported as “reduction”. Besides, in the series on embryonic motor neuron, the “embryonic motor neuron survival in culture” value is “enhanced”.

B2: NT-4: member of the neurotrophin family (protein, UniProt P34130 81-210, looked up)
Neurotrophin-4: GVSETAPASRRGELAVCDAVSGWVTDRRTAVDLRGREVEVLGEVPAAGGSPLRQYFFETRCKADNAEEGGPGAGGGGCRGVDRRHWVSECKAKQSYVRALTADAQGRVGWRWIRIDTACVCTLLSRTGRA
As for B2, the “embryonic motor neuron survival in culture” value in the series with embryonic motor neuron is “enhanced”.

B3: cardiotrophin-1: cytokine present in embryonic muscle (protein, UniProt Q16619 1-201, looked up)
Cardiotrophin-1: MSRREGSLEDPQTDSSVSLLPHLEAKIRQTHSLAHLLTKYAEQLLQEYVQLQGDPFGLPSFSPPRLPVAGLSAPAPSHAGLPVHERLRLDAAALAALPPLLDAVCRRQAELNPRAPRLLRRLEDAARQARALGAAVEALLAALGAANRGPRAEPPAATASAASATGVFPAKVLGLRVCGLYREWLSRTEGDLGQLLPGGSA
As for B3, the “motoneuronal death occurring naturally during embryonic development” value in the series on motoneurons is on record as “reduction”. Also, the “embryonic motor neuron survival in culture” value in the series with embryonic motor neuron is “enhanced”.

B4: CNTF: CNTF rat recombinant protein (Sigma Aldrich); specific stress-protecting factor (protein, UniProt P20294 1-200, looked up)
Ciliary neurotrophic factor: MAFAEQTPLTLHRRDLCSRSIWLARKIRSDLTALMESYVKHQGLNKNINLDSVDGVPVASTDRWSEMTEAERLQENLQAYRTFQGMLTKLLEDQRVHFTPTEGDFHQAIHTLMLQVSAFAYQLEELMVLLEQKIPENEADGMPATVGDGGLFEKKLWGLKVLQELSQWTVRSIHDLRVISSHQMGISALESHYGAKDKQM
For the molecule B4, the “protective effect in two murine models of inherited progressive motor degeneration” value in series [2] is reported as “protective effect”. The “motoneuronal death occurring naturally during embryonic development” value in the series with motoneurons is “reduction”. Besides, in the series on embryonic motor neuron, the “embryonic motor neuron survival in culture” value is listed as “enhanced”. In the series on SOD1(G93A) mice [3] (CNTF intramuscular from P20 to P28, before disease onset), the “upregulation of BiP in VUL MNs” value is “completely prevented”. Also, in the series on SOD1(G93A) mice [3] (setting [8]), the UPR/UPS reaction entry was “effectively prevented”; the “VUL MN BiP and Pi-elF2a signals” value is “normalized”; the “activation of microglia on the spinal cord side ipsilateral to the treatment” value was “reduced”; the “downregulation of stress-related protective pathways in VUL MNs” value is reported as “counteracted”. Besides, in the series on SOD1(G93A) mice [4], the “axonal pathology in VUL MNs” value is “effectively attenuates” and the disease progression result is reported as “slows”.

B5: BDNF: member of the neurotrophin family (protein, UniProt P23560 19-247, looked up)
Neurotrophic factor BDNF …: APMKEANIRGQGGLAYPGVRTHGTLESVNGPKAGSRGLTSLADTFEHVIEELLDEDQKVRPNEENNKDADLYTSRVMLSSQVPLEPPLLFLLEEYKNYLDAANMSMRVRRHSDPARRGELSVCDSISEWVTAADKKTAVDMSGGTVTVLEKVPVSKGQLKQYFYETKCNPMGYTKEGCRGIDKRHWNSQCRTTQSYVRALTMDSKKRIGWRFIRIDTSCVCTLTIKRGR
As to B5, the “protective effect in two murine models of inherited progressive motor degeneration” value in series [2] is reported as “protective effect”. The “motoneuronal death occurring naturally during embryonic development” value in the series with motoneurons is reported as “reduction”. In addition, the “embryonic motor neuron survival in culture” value in the series on embryonic motor neuron is recorded as “enhanced”.

B6: NT-3: member of the neurotrophin family (protein, UniProt P20783 139-257, looked up)
Neurotrophin-3: YAEHKSHRGEYSVCDSESLWVTDKSSAIDIRGHQVTVLGEIKTGNSPVKQYFYETRCKEARPVKNGCRGIDDKHWNSQCKTSQTYVRALTSENNKLVGWRWIRIDTSCVCALSRKIGRT
In the case of B6, the “embryonic motor neuron survival in culture” value in the series with embryonic motor neuron is “enhanced”.
